The results in this text go back to PMC8575462, “PP2A/B55α substrate recruitment as defined by the retinoblastoma-related protein p107” (eLife, 2021).

Experiment [1] has as its target purified PP2A/B55α holoenzyme (trimeric Flag-B55α/PP2A holoenzyme), P63151;P30153;P67775. Kind of experiment: peptide competition of GST-p107 R1R2 pull-down of purified PP2A/B55α, western blot quantified with ImageJ. Particulars: lower B55α signal = peptide competes for B55α, read off a plot. On the technique in general: In western blotting, separated proteins are transferred to a membrane and probed.

Experiment [2] concerns the target Flag-pRB (UniProt P06400). Kind of experiment: co-immunoprecipitation (anti-Myc IP), western blot quantitation. Particulars: 293T cells, co-transfected; parent: est. 1.0; read off a plot.
Experiment [3] concerns the target B55α. Kind of experiment: YFP pulldown, mass spectrometry. Particulars: -log10 p-value est. 2.6; read off a plot.
In experiment [4] the target is PP2A/A. Kind of experiment: YFP pulldown, mass spectrometry. The settings on record: -log10 p-value est. 2.2; read off a plot.
Experiment [5] has as its target T1, purified monomeric full-length B55α (M1-N447) (UniProt P63151 1-447).
T1 construct: B55α M1-N447; also called B55α_(1-447); purified B55α; source: Expi293F, transfected, purified (GFP-nanobody beads, TEV cleavage, Mono Q); not shown: His6, N-terminal, cleaved; GFP, N-terminal, cleaved
T1 sequence (looked up): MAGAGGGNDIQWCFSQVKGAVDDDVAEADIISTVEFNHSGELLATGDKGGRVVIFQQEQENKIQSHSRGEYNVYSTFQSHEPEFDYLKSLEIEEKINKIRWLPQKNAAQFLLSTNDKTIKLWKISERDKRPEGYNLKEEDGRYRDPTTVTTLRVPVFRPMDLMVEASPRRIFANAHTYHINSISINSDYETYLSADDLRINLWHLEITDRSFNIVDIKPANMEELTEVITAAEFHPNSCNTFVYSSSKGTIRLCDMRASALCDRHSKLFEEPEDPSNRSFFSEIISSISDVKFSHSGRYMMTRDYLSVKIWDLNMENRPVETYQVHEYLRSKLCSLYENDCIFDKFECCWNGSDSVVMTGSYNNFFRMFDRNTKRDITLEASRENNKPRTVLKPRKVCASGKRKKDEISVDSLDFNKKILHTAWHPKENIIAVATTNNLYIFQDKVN
Kind of experiment: NMR titration; 2D [1H,15N] HSQC of 15N-labeled p107 (M612-S687) with and without unlabeled B55α mixed at 1:1 ratio; 283 K; 20 mM sodium phosphate pH 6.8, 250 or 50 mM NaCl, 0.5 mM TCEP. Particulars: both partners purified.

The mark [6] stands for this setting: Peptides (at 300 µM), no-peptide control est. 0.68, parent: est. 0.09.
[7] abbreviates: Peptides (at 300 µM), no-peptide control est. 0.72, parent: est. 0.32.
[8] abbreviates: peptide 120 µM, no-peptide control est. 0.68.
Setting [9] is: peptide 240 µM, no-peptide control est. 0.68, parent: est. 0.07.
Where [10] appears, read: Peptides (at 300 µM), no-peptide control est. 0.68, parent: est. 0.08.

Chain of Flag-pRB (P06400 whole entry): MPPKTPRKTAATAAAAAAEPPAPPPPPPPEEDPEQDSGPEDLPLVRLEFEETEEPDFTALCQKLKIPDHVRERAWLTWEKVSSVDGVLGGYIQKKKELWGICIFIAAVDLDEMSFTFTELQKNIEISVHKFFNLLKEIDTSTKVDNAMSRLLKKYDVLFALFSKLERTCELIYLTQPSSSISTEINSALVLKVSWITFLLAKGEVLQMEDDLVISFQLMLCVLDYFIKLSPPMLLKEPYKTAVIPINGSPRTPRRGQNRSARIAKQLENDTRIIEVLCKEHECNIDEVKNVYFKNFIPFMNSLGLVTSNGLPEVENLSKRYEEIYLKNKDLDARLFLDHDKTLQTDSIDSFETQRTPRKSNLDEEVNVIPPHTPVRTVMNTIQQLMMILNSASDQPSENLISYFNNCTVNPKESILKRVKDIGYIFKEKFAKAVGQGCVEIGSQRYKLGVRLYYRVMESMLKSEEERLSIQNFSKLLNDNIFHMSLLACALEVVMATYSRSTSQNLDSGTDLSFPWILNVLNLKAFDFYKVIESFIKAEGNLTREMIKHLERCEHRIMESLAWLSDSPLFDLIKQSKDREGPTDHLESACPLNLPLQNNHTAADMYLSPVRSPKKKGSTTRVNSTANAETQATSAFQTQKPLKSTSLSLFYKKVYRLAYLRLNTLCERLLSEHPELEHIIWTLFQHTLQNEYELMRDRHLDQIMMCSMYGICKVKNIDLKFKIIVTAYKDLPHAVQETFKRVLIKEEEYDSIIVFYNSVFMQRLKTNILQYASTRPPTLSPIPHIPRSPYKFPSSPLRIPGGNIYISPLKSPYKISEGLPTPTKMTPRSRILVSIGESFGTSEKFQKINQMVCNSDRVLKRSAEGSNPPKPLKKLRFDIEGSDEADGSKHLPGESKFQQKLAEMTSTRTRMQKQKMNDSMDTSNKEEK

As to pS615-R1 phosphopeptide, wildtype H619A, the response in experiment [1] (setting [6]) was found to be 0.6. For “R1 peptide (synthetic p107 peptide encompassing the R1 region) H619A”, the response in experiment [1] (setting [7]) came to 0.38.

Turning to “R1 peptide (synthetic p107 peptide encompassing the R1 region) E624A; V625A; R626A”, the response is 0.56 in experiment [1] (setting [8]) and 0.57 in experiment [1] (setting [9]).

Consider “R1 peptide (synthetic p107 peptide encompassing the R1 region) R621A; V622A; K623A”, for which the values for the response in experiment [1] (setting [8]) and in experiment [1] (setting [9]) were 0.8 and 0.92, respectively. As for “R1 peptide (synthetic p107 peptide encompassing the R1 region) R626A”, in experiment [1] (setting [7]), the response worked out at 0.08. As for “R1 peptide (synthetic p107 peptide encompassing the R1 region) S615A; P616A; L617A”, the response in experiment [1] (setting [8]) was found to be 0.25; in experiment [1] (setting [9]), 0.1. Turning to “R1 peptide (synthetic p107 peptide encompassing the R1 region) P620A”, the response in experiment [1] (setting [10]) worked out at 0.2.

In the case of “R1 peptide (synthetic p107 peptide encompassing the R1 region) V625A”, the response in experiment [1] (setting [10]) worked out at 0.98. “R1 peptide (synthetic p107 peptide encompassing the R1 region) K623A”: the response in experiment [1] (setting [7]) was 0.03.

On to “R1 peptide (synthetic p107 peptide encompassing the R1 region) V622A”, for which the response in experiment [1] (setting [10]) worked out at 0.88. As for “R1 peptide (synthetic p107 peptide encompassing the R1 region) M618A”, the response in experiment [1] (setting [10]) is 0.3. In the case of “Myc-B55α wild type (from UniProt P63151) EEK-AAA”, the ratio to parent in experiment [2] is 0.28. “R1 peptide (synthetic p107 peptide encompassing the R1 region) M618A; H619A; P620A”: the results for the response in experiment [1] (setting [8]) and in experiment [1] (setting [9]) were 0.43 and 0.41, respectively. Regarding “R1 peptide (synthetic p107 peptide encompassing the R1 region) R621A”, in experiment [1] (setting [7]), the response stood at 0.55.

Regarding “R1 peptide (synthetic p107 peptide encompassing the R1 region) E624A”, in experiment [1] (setting [10]), the response was 0.02. pS615-R1 phosphopeptide, wildtype R621A: the response in experiment [1] (setting [6]) came to 0.82. Turning to “GFP-p107-R1 (four copies of R1) H619A; R621A; V622A; V625A”, the other: log2 ratio WT-Mut in experiment [3] is 5.5; in experiment [4], 3.2. As for “R1 peptide (synthetic p107 peptide encompassing the R1 region) T627A; D628A; S629A”, the response in experiment [1] (setting [8]) was 0.04; in experiment [1] (setting [9]), 0.02.

B1: p107 (M612-S687) (domain or fragment, UniProt P28749 612-687, looked up)
chain: MPMSPLMHPRVKEVRTDSGSLRRDMQPLSPISVHERYSSPTAGSAKRRLFGEDPPKEMLMDKIITEGTKLKIAPSS
modifications: 15N-labeled
notes: p107 residues M612-S687, which include R1, R2 and R3; also called p107_(612-687); source: E. coli BL21, purified (HisTrap, TEV cleavage, heating at 80°C, SEC); not shown: His6, N-terminal, cleaved; MBP, N-terminal, cleaved
With B1, the binding result in experiment [5] is listed as “binds”.
